In patent US20240325557A1, “TREATMENT OF CANCER” (INNATE PHARMA, priority 2020, published 2024):

T1: wild-type human Nectin-4 (Homo sapiens, UniProt Q96NY8)
T1 construct: expressed in transfected cells; host or cells: CHO (huNectin4 Cl.3C8)
T1 sequence (Q96NY8 32-510): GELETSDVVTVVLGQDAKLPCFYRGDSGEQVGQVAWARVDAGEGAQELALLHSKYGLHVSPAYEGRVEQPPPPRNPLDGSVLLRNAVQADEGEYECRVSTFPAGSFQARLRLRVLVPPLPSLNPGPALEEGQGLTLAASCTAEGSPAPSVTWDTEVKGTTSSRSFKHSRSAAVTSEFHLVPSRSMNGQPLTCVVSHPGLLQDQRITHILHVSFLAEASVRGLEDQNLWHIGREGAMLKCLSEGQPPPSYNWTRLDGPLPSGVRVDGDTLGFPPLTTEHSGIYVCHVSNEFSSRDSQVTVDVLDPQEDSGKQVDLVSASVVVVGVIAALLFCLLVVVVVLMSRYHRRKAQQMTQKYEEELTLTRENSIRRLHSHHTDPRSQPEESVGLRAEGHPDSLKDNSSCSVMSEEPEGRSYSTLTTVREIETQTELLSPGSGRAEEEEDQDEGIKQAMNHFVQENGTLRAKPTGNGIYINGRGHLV

T2: Nectin-4 Mutant 2 (V90S/P92A/A93S/E95A/G96D) (Homo sapiens, UniProt Q96NY8, A93S/E95A/G96D/P92A/V90S)
T2 construct: expressed in transfected cells; host or cells: HEK293T
T2 sequence (Q96NY8 32-510 V90S/P92A/A93S/E95A/G96D): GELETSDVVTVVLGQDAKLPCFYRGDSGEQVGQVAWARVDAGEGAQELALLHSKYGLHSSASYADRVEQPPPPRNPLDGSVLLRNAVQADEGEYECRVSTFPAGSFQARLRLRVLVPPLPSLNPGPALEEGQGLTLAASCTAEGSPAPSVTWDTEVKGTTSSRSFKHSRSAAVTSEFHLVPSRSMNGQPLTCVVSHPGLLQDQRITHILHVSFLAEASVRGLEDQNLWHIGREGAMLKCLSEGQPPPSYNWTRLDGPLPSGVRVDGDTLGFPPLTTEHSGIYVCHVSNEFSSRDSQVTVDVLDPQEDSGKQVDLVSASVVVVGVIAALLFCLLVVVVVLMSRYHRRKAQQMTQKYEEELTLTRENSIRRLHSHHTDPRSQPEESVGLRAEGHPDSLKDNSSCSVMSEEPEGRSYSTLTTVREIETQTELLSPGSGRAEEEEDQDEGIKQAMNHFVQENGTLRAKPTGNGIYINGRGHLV


Experiments:
[1] = test system: SUM190 cells; test: Fab-ZAP internalization assay (CTG cell viability); assay type: cell-based, human
Experimental: The ability of the anti-Nectin-4 antibodies to induce nectin-4 internalization was assessed on SUM190 cell lines expressing lower levels of nectin-4 and in SUM185 cells expressing higher levels of Nectin-4. The internalization was indirectly determined by using the Fab-ZAP human Internalization Kit (Advanced Targeting Systems) to allow the anti-Nectin-4 antibodies to target and eliminate Nectin-4 expressing cells, with measurement of cell viability using the CTG substrate (CellTiter-Glo® Luminescent Cell Viability Assay (Promega). Fab-ZAP is a chemical conjugate of goat anti-human monovalent antibody and the ribosome-inactivating protein, saporin. The antibodies used are affinity-purified polyclonal antibodies against both the heavy and light chain of human IgG. This secondary conjugate is used to evaluate the potential of a primary antibody to internalize.
Briefly, a concentration range of the anti-Nectin-4 antibodies or the controls were incubated with SUM190 or SUM185 cells. After 45-minute incubation at 4° C., the non-bound antibodies were washed away and Fab-ZAP was added on top of the cells. The newly formed complexes (anti-nectin-4 antibody+Fab-ZAP) internalized into the cells where the Saporin was released and stopped the protein synthesis leading to cell death. The internalization capability of the antibody was indirectly determined by the cell's viability: the more efficient was the cell killing; the better was the internalization capability of the antibody.

[2] = target: T1, wild-type human Nectin-4; test: Flow cytometry binding to wild-type Nectin-4 expressing CHO cells
Experimental: plates of hybridoma supernatants were tested for binding on the wild-type human Nectin-4 expressing CHO cell line by flow cytometry. Briefly, Nectin-4 expressing cells were used at 0.2×10^6 cells by well in a buffer of PBS, BSA 0.5%, EDTA 5 mM. The first antibody was incubated with cells for 1h at +5±3° C. in 50 μL of supernatant. […] Acquisition HTFC flow cytometer (Intellicyt), with data analysis on ForeCyt™ software.
The characterization of the binding of the antibodies on Nectin-4 domains was performed by flow cytometry using cells made to express the wild-type human Nectin-4 protein and cells made to express a modified Nectin-4 having the Ig-like C2 type 1 and the Ig-like C2 type 2 domains and lacking the Ig-like V domain (the C1C2 construct). The latter protein additionally bears a V5 tag for flow cytometry cell sorting, and cells were used as Nectin4-C1C2-V5 sorted cells.
Wild-type Nectin-4 (the CI.3C8 cell line), a C2 construct (containing the Ig-like C2 type 2 domain and lacking both the V and the C1 domains) and the C1C2 construct allow the determination of whether test antibodies bind to the V or different C domains. Briefly, nucleic acid sequences encoding different human Nectin-4 domains were amplified by PCR. The PCR products were inserted into an expression vector at appropriate restriction sites. […] The amino acid sequences of the resulting different human Nectin-4 domain fragment-containing proteins are shown below (V5 tag underlined). The vectors were then transfected into the CHO cell line to obtain stable clones expressing the different Nectin-4 domain proteins at the cell surface.

[3] = target: T2, Nectin-4 Mutant 2 (V90S/P92A/A93S/E95A/G96D); test: Binding to cell surface expressed Nectin-4 point mutant; settings: HEK-293T
From the text: Combined with the published structures of the Nectin-4 domains, Nectin-4 mutations at surface exposed amino acids residues were designed. Nectin-4 domain structure was modelled based on Protein Data Bank reference: 4FRW (domains V et C1). Human Nectin-4 used was NCBI Reference Sequence: NP_112178.2, mouse Nectin-4 used was NCBI Reference Sequence: AAL79833.1, cynomolgus Nectin-4 used was NCBI Reference Sequence: XP_005541277.1, rat Nectin-4 used was NCBI Reference Sequence: NP_001102546.1. The cells expressing the Nectin-4 mutants are then be used for testing anti-Nectin-4 antibodies for loss of binding to different Nectin-4 mutants to identify antibodies that bind to the same site on Nectin-4. […] FIGS. 12A and 12B show a molecular model of the human Nectin-4 protein, indicating the position of substituted residues in mutants 7 (12A) and in mutants 7bis (12B); these mutants are in the C1 domain identify two sites at the junction of domain C1 and V domain that are on opposing faces of the Nectin-4 protein.
Nectin-4 mutants were generated by PCR. The sequences amplified were run on agarose gel and purified using the Macherey Nagel PCR Clean-Up Gel Extraction kit. The purified PCR products generated for each mutant were then ligated into an expression vector, with the ClonTech InFusion system. The vectors containing the mutated sequences were prepared as Miniprep and sequenced. After sequencing, the vectors containing the mutated sequences were prepared as Midiprep using the Promega PureYield™ Plasmid Midiprep System. HEK293T cells were grown in DMEM medium (Invitrogen), transfected with vectors using Invitrogen's Lipofectamine 2000 and incubated at 37° C. in a CO2 incubator for 48 hours prior to testing for transgene expression. The targeted amino acid mutations are shown in Table 2 below, listing the residue present in wild-type Nectin-4/position of residue/residue present in mutant Nectin-4, with position reference being to the Nectin-4 protein with leader peptide shown in SEQ ID NO: 1.

Row | Molecule | induction of internalization [1] | binding to whole (wild-type) human Nectin-4 protein [2] | association with Nectin-4 Mutant 2 [3]
1 | 5E7 (antibody, V domains shown) VH: QVQLQQPGAELVKPGASVKLSCKASGYIFTSYWMHWVKQRPGQGLEWIGEIDPSDSYTNYNQKFKGKATLTLDKSSSTTYMQLSSLTSEDSAVYYCVRGYGNYGDYWGQGTTLTVSS VL: DVVMTQAAFSNPVTLGTSASISCRSSKSLLHSNGITYLYWYLQKPGQSPQLLIYQMSNLASGVPDRFSSSGSGTDFTLRISRVEAEDVGVYYCAQNLELPWTFGGGTKLEIK | as efficient as the enfortumab in inducing internalization | lower plateau | +
2 | 10B12: anti-Nectin-4 antibody, VH SEQ ID NO: 24, VL SEQ ID NO: 25, binds junction of domain C1 and V (antibody, listed as Mus musculus, V domains shown) VH: QVQLQQPGAELVKPGASVKLSCKASGYTFTSYWMHWVKQRPGQGLEWIGEIDPSDSYTNYNQKFKGKATLTVDKSSSTAYMQLSSLTSEDSAVYYCVRGYGNYGDYWGQGTTLTVSS VL: DIVMTQAAFSNPVTLGTSASISCRSSKSLLHSNGITYLYWYLQKPGQSPQLLIYQMSNLASGVPDRFSSSGSGTDFTLRISRVEAEDVGVYYCAQNLELPWTFGGGTKLEIK | as efficient as the enfortumab in inducing internalization | lower plateau | +
3 | N41 (antibody, V domains shown) VH: QVQLKQSGPGLVQPSQSLSITCTVSGFSLTNYGVHWVRQSPGKGLEWLGVIWSGGSTDYNAAFISRLSISKDTSKSQVFFKMNSLQADDTAIYYCARELIHAMDNWGQGTSVTVSS VL: DIQMTQSPASLSVSVGETVTITCRASENIYSNLAWYQQKQGNSPQLLVFAATNLADGVPSRFSGSGSGTQYSLKINSLQSEDFGTYYCQHFWGTPTFGGGTKLEIK |  | bound to the whole Nectin-4 protein | +
